Positions count from the first letter of the chain named. Each block holds one binder with its values, some of them ahead of it.
Experiments:
[1] = target: T1, human PSMA on cells (Cho-hPSMA, CHO-K1 cells overexpressing full-length human PSMA) (human, UniProt Q04609 1-750); test: hybridoma screening on cells
T1 construct: whole, on cells; also called cell surface PSMA; PSMA-expressing Lncap cells

[2] = target: T1, human PSMA on cells (Cho-hPSMA, CHO-K1 …); test: flow cytometry, Cho-hPSMA cells
Description: The binding activity of antibodies to the stably transfected cell strain Cho-hPSMA, which overexpresses human PSMA, was measured by flow cytometry in this test example. The full-length gene encoding human PSMA was cloned into the mammalian cell expression vector pCDH. HEK293T cells (ATCC® CRL-11268) were co-transfected with three plasmids-pVSV-G, pCMV-dR8.91, and pCDH-human PSMA- to package viruses. After 48 h of transfection, viruses were collected to infect CHO-K1 cells.
Experiment 1: Cho-hPSMA was cultured in F12 medium with 10% FBS. The medium to which cells were inoculated was incubated in a 37° C., 5% CO₂ incubator for 2 days, and cells were added to a cell plate at 1×10⁵ cells/well and washed by centrifugation. Antibodies were serially diluted, and the antibody solutions were added to the cell plate at 100 μL/well. The plate was incubated at 4° C. for 1 h and then washed. An AF488-Goat Anti-human IgG Fc fluorescent secondary antibody dilution (1:400) was added to the cell plate at 100 μL/well, and the plate was incubated at 4° C. for 1 h and then washed. PBS was added to the cell plate at 100 μL/well before plate reading.

[3] = target: T2, human PSMA antigen (R&D SYSTEM, 4234-ZN-010) (human, UniProt Q04609 44-750); test: ELISA, plate-bound PSMA antigen
T2 construct: bought antigen
T2 sequence (Q04609 44-750 limits assumed): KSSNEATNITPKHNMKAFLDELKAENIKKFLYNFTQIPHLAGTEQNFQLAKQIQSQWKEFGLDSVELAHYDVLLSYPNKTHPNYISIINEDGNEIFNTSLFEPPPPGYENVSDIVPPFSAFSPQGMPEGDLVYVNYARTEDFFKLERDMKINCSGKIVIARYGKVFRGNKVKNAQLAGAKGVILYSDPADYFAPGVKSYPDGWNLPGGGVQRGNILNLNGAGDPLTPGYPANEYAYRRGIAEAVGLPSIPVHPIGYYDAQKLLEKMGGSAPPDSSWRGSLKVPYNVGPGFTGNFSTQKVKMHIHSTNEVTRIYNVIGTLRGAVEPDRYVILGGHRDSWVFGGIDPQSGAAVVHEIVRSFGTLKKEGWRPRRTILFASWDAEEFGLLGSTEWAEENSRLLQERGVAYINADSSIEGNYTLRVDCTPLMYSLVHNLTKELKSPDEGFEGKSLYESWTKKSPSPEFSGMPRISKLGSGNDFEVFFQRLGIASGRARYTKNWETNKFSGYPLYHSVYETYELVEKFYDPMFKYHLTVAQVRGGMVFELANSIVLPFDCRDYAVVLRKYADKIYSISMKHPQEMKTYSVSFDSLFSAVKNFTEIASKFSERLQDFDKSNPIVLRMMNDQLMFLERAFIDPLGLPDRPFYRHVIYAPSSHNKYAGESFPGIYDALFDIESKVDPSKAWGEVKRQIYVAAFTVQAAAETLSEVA
Description: To test the ability of the PSMA-targeting humanized antibodies of the present disclosure to bind to PSMA antigen, the ELISA method was used in this test example to measure the binding of the PSMA-targeting humanized antibodies to human PSMA antigen (purchased from R&D SYSTEM, 4234-ZN-010). The specific steps are as follows: A 96-well plate was coated with PSMA antigen at 1 μg/well and placed at 4° C. overnight. After the supernatant was discarded, the plate was blocked with 5% skim milk for 2 h. Different concentrations of humanized antibodies were prepared using 1% BSA. The initial concentration was 10 μg/mL and was serially diluted 4-fold to obtain 12 concentrations. After the blocked 96-well plate was washed twice, the […] was added, and the plate was incubated at 4° C. for 1 h. After four washes, the plate was incubated with Strepidation-HRP secondary antibody (1:10,000) at 4° C. for 1 h. After color development with TMB, the reaction was stopped with 0.1 M sulfuric acid.

[4] = target: hTSLP (human, UniProt Q969D9 29-159); test: ELISA
[5] = target: hIL5 (human, UniProt P05113 20-134); test: ELISA

T1 sequence (Q04609 whole entry): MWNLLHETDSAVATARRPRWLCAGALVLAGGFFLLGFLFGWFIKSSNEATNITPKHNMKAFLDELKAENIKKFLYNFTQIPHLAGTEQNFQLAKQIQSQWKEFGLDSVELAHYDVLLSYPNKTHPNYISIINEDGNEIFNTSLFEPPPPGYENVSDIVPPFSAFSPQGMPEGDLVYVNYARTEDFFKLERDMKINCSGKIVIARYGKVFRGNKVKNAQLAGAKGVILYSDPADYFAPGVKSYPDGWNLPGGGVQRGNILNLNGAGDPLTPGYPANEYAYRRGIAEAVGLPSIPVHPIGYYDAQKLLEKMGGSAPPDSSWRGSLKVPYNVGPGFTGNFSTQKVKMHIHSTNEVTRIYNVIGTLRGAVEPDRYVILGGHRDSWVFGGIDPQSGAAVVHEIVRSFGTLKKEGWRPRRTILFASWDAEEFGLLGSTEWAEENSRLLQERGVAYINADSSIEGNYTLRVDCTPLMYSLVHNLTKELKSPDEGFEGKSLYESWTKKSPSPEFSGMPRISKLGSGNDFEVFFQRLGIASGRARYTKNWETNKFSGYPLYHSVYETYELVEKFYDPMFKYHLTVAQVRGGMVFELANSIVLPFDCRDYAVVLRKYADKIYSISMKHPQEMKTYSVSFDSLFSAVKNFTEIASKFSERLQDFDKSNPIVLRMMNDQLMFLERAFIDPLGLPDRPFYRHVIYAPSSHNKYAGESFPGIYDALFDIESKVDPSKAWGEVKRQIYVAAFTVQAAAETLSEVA

binding result [1]: binds
B1: murine antibody 43 (antibody, V domains shown)
VH: EVKFEESGGGLVQPGGSMKLSCVASGFTFSNYWMNWLRQSPEKGLEWVAQVRLKSDNYATHYAESVKGRFTISRDDSKSSAYLQMNNLRAEDTGIYYCSENYYGPAGPFDFWGQGTTLTVSS
VL: DIVMTQSQKFMSTTVGDRVSITCKASQNVHTSVAWYQQKPGQSPKLLIYSASNRYSGVPDRFTGSGSGTDFTLTINNMQSEDLADYFCQQYSSYPLTFGVGTKLELK
notes: murine hybridoma antibody

binding result [1]: binds
B2: murine antibody 2 (antibody, V domains shown)
VH: EVKLVESEGGLVQPGSSMKLSCTASGFTFSDYYMAWVRQVPEKGLEWVANINFDGSSTYYLDSLKSRFIISRDNAKNILYLQMSSLKSEDTATYYCARDLDGYYGYFDVWGTGTTVTVSS
VL: QIVLTQSPAIMSASPGEKVTISCSASSSVSHMYWYQQKPGSSPKPWIYRTSNLASGVPARFSGSGSGTSYSLTISSMEAEDAATYYCQQYHSYPLMFGAGTKLELK
notes: murine hybridoma antibody

binding result [1]: binds
B3: murine antibody 27 (antibody, V domains shown)
VH: B2 VH with F53Y
VL: B2 VL with H31Y, M96T
notes: murine hybridoma antibody

EC50 [2]: 1.21 µg/mL
EC50 [3]: 0.0409 µg/mL
Top (maximum absorbance) [3]: 2.11 absorbance
B4: Chi13 (antibody, human IgG1, kappa, V domains shown)
VH: QVQLKESGPGLVAPSQSLSITCTVSGFSLTNYAISWVRQPPGKGLEWLGVIWTGGGTHYNSALKSRLSISKDNSKSQVFLKMNSLQTDDTARYYCARKGNYYGSSLYYYAMNYWGQGTSVTVSS
VL: DIQMTQTTSSLSASLGDRVTISCRASQDISNYLNWYQQKPDGTVKLLIYYTSRLQSGVPSRFSGSGSGTDYSLSISNLEQEDIATYFCQQGDTLPYTFGGGTKLEIRT
notes: chimeric antibody, hIgG1/kappa

binding result [1]: binds
B5: murine antibody 15 (antibody, V domains shown)
VH: EFQLQQSGPELVKPGASVKISCKASGYSFTDHNMNWVKQSNGKSLEWIGLINPNYGTADYNQKFKGKATLTVDQSSTTAFMQFTSLTSEDSAVYYCARGSSLFAYWGQGTLVTVSA
VL: DIVMTQSHKFMSTSVGDRVNITCKASQGVDTAVAWYQQKPGQSPKLLIYWASTRHTGVPDRFTGSGSGTDFTLTISNVQSEDLADYFCQQYSRYPLTFGAGTKLELK
notes: murine hybridoma antibody

EC50 [2]: 1.01 µg/mL
B6: hu13H1L3 (antibody, human IgG1, kappa, V domains shown)
VH: EVTLKESGPVLVKPTETLTLTCTVSGFSLSNYAISWIRQPPGKALEWLAVIWTGGGTHYNSALKSRLTISKDTSKSQVVLTMTNMDPVDTATYYCARKGNYYGSSLYYYAMNYWGQGTTVTVSS
VL: DIQMTQSPSSLSASVGDRVTITCRASQDISNYLNWYQQKPDGTVKLLIYYTSRLQSGVPSRFSGSGSGTDYTLTISSLQPEDFATYYCQQGDTLPYTFGGGTKVEIKR

EC50 [2]: 1.05 µg/mL
B7: hu13H3L1 (antibody, human IgG1, kappa, V domains shown)
VH: B6 VH with S30T, A44G, A49G, T73N, T92R
VL: B6 VL with D41G, G42K, T43A, V44P, Y71F

EC50 [2]: 1.5 µg/mL
B8: hu13H3L3 (antibody, human IgG1, kappa, V domains shown)
VH: B6 VH with S30T, A44G, A49G, T73N, T92R
VL: B6 VL

EC50 [2]: 1.05 µg/mL
B9: hu13H2L1 (antibody, human IgG1, kappa, V domains shown)
VH: B6 VH with A49G, T92R
VL: B6 VL with D41G, G42K, T43A, V44P, Y71F

EC50 [2]: 1.14 µg/mL
B10: hu13H2L3 (antibody, human IgG1, kappa, V domains shown)
VH: B6 VH with A49G, T92R
VL: B6 VL

EC50 [2]: 1.1 µg/mL
B11: hu13H3L2 (antibody, human IgG1, kappa, V domains shown)
VH: B6 VH with S30T, A44G, A49G, T73N, T92R
VL: B6 VL with T43A, V44P

EC50 [4]: 3.23 nM
EC50 [5]: 17.4 nM
B12: HJ-3 (bispecific antibody)
chain 1: not shown
chain 2: DIQMTQSPSSVSASVGDRVTITCRASQDIANYLSWYQQKPGKSPKLLIYGTSNLEVGVPSRFSGSRSGTDFTLTISSLQPEDFATYYCLQDKEFPRTFGGGTKVEIKGGGGSSGAPRFLTRPLAFVVSVGKDATLSSQIVGNPTPQVSWEKDKQPVTAGARFRLAQDGDLYRLKILDLQLSDSGQYVSRARNAIGEAFACLGLQVDAEA
chain 3: EVQLVQSGAEVKKPGSSVKVSCKASGYTFSNYLIEWVRQAPGQGLEWIGVIDPGVGDTNYNENFKGRATLTADKSTSTAYIELSSLRSEDTAVYYCAREDNTGTAFDYWGQGTTVTVSSASTKGPSVFPLAPSSKSTSGGTAALGCLVKDYFPEPVTVSWNSGALTSGVHTFPAVLQSSGLYSLSSVVTVPSSSLGTQTYICNVNHKPSNTKVDKKVEPKSCDKTHTCPPCPAPEAAGGPSVFLFPPKPKDTLMISRTPEVTCVVVDVSHEDPEVKFNWYVDGVEVHNAKTKPREEQYNSTYRVVSVLTVLHQDWLNGKEYKCKVSNKALPAPIEKTISKAKGQPREPQVCTLPPSREEMTKNQVSLSCAVKGFYPSDIAVEWESNGQPENNYKTTPPVLDSDGSFFLVSKLTVDKSRWQQGNVFSCSVMHEALHNHYTQKSLSLSPGKDYKDDDDK
chain 4: SIVMTQTPLSLSVTPGQPASISCKASQSVSSDVTWYLQKPGQSPQLLIYYVSEHYTGVPDRFSGSGYGTDFTLKISRVEAEDVGVYYCQQHHRFPLTFGQGTKLEIKRTVAAPSVFIFPPSDEQLKSGTASVVCLLNNFYPREAKVQWKVDNALQSGNSQESVTEQDSKDSTYSLSSTLTLSKADYEKHKVYACEVTHQGLSSPVTKSFNRGEC

EC50 [4]: 3 nM
EC50 [5]: 9.46 nM
B13: HJ-11 (bispecific antibody)
chain 1: not shown
chain 2: DIQMTQSPSSVSASVGDRVTITCRASQDIANYLSWYQQKPGKSPKLLIYGTSNLEVGVPSRFSGSRSGTDFTLTISSLQPEDFATYYCLQDKEFPRTFGGGTKVEIKRTVASSGCPRFLTRPKASVVSVGKDATLSCQIVGNPFPQVSWEKDKQPVTAGVRFRLAQDGDLYRLKILDLQLSDSGQYVCRARNAHGEAFACLGLQVDAEA
chain 3: EVQLVQSGAEVKKPGSSVKVSCKASGYTFSNYLIEWVRQAPGQGLEWIGVIDPGVGDTNYNENFKGRATLTADKSTSTAYIELSSLRSEDTAVYYCAREDNTGTAFDYWGQGTTVTVSSASTKGPSVFPLAPSSKSTSGGTAALGCLVKDYFPEPVTVSWNSGALTSGVHTFPAVLQSSGLYSLSSVVTVPSSSLGTQTYICNVNHKPSNTKVDKKVEPKSCDKTHTCPPCPAPEAAGGPSVFLFPPKPKDTLMISRTPEVTCVVVDVSHEDPEVKFNWYVDGVEVHNAKTKPREEQYNSTYRVVSVLTVLHQDWLNGKEYKCKVSNKALPAPIEKTISKAKGQPREPQVCTLPPSREEMTKNQVSLSCAVKGFYPSDIAVEWESNGQPENNYKTTPPVLDSDGSFFLVSKLTVDKSRWQQGNVFSCSVMHEALHNHYTQKSLSLSPGK
chain 4: B12 chain 4

EC50 [4]: 2.64 nM
EC50 [5]: 16 nM
B14: HJ-5 (bispecific antibody)
chain 1: not shown
chain 2: B12 chain 2 with L123K, F125S, T144F, A160V, I194H
chain 3: B13 chain 3
chain 4: B12 chain 4

EC50 [4]: 3.33 nM
EC50 [5]: 18.7 nM
B15: HJ-8 (bispecific antibody)
chain 1: not shown
chain 2: B13 chain 2 with C115A, C137S, C188S
chain 3: B13 chain 3
chain 4: B12 chain 4

EC50 [4]: 3.18 nM
EC50 [5]: 10.9 nM
B16: HJ-9 (bispecific antibody)
chain 1: not shown
chain 2: B13 chain 2 with C115A, R121C, C137S, C188S
chain 3: B13 chain 3
chain 4: B12 chain 4

EC50 [4]: 2.18 nM
EC50 [5]: 17.7 nM
B17: HJ-7 (bispecific antibody)
chain 1: not shown
chain 2: B13 chain 2 with R108G, T109G, V110G, A111G, C115A
chain 3: B13 chain 3
chain 4: B12 chain 4

EC50 [4]: 3.17 nM
EC50 [5]: 20.8 nM
B18: HJ-10 (bispecific antibody)
chain 1: not shown
chain 2: B13 chain 2 with C115A
chain 3: B13 chain 3
chain 4: B12 chain 4

EC50 [4]: 2.88 nM
EC50 [5]: 37 nM
B19: HJ-6 (bispecific antibody)
chain 1: not shown
chain 2: B12 chain 2 with R121C, L123K, F125S, T144F, A160V, I194H
chain 3: B13 chain 3
chain 4: B12 chain 4

binding result [1]: binds
B20: murine antibody 19 (antibody, V domains shown)
VH: EVKLVESEGGLVQPGSSMKLSCTASGFTFSDYYMAWVRQVPERGLEWVANINYDGSSTYYLDSLKSRFIISRDNAKNILYLQMSSLKSEDTATYYCARGGDYWDAMDYWGQGTSVTVSS
VL: DIQMTQTTSSLSASLGDRVTISCRASQDISKYLNWYQQKPDGTVKLLIYYTSSLHSGVPSRFSGSGSGTDYSLTISNLEQEDIATYFCQQGNRLPRTFGGGTKLEIK
notes: murine hybridoma antibody
